Reference: publication PMC9672406

B1: ScMqnA (chorismate dehydratase MqnA) (Streptomyces coelicolor A3(2)) (protein)
chain: MDNSRTRPRVGHIQFLNCLPLYWGLARTGTLLDFELTKDTPEKLSEQLVRGDLDIGPVTLVEFLKNADDLVAFPDIAVGCDGPVMSCVIVSQVPLDRLDGARVALGSTSRTSVRLAQLLLSERFGVQPDYYTCPPDLSLMMQEADAAVLIGDAALRANMIDGPRYGLDVHDLGALWKEWTGLPFVFAVWAARRDYAEREPVITRKVHEAFLASRNLSLEEVEKVAEQAARWEAFDEDTLAKYFTTLDFRFGAPQLEAVTEFARRVGPTTGFPADVKVELLKP
B2: ScMqnA (chorismate dehydratase MqnA) (Streptomyces coelicolor A3(2); N17A) (protein)
chain: MDNSRTRPRVGHIQFLACLPLYWGLARTGTLLDFELTKDTPEKLSEQLVRGDLDIGPVTLVEFLKNADDLVAFPDIAVGCDGPVMSCVIVSQVPLDRLDGARVALGSTSRTSVRLAQLLLSERFGVQPDYYTCPPDLSLMMQEADAAVLIGDAALRANMIDGPRYGLDVHDLGALWKEWTGLPFVFAVWAARRDYAEREPVITRKVHEAFLASRNLSLEEVEKVAEQAARWEAFDEDTLAKYFTTLDFRFGAPQLEAVTEFARRVGPTTGFPADVKVELLKP
B3: ScMqnA (chorismate dehydratase MqnA) (Streptomyces coelicolor A3(2); Y242F) (protein)
chain: MDNSRTRPRVGHIQFLNCLPLYWGLARTGTLLDFELTKDTPEKLSEQLVRGDLDIGPVTLVEFLKNADDLVAFPDIAVGCDGPVMSCVIVSQVPLDRLDGARVALGSTSRTSVRLAQLLLSERFGVQPDYYTCPPDLSLMMQEADAAVLIGDAALRANMIDGPRYGLDVHDLGALWKEWTGLPFVFAVWAARRDYAEREPVITRKVHEAFLASRNLSLEEVEKVAEQAARWEAFDEDTLAKFFTTLDFRFGAPQLEAVTEFARRVGPTTGFPADVKVELLKP

These proteins were tested on C=C(O[C@@H]1C=C(C(=O)O)C=C[C@H]1O)C(=O)O (assay: purified protein). Details: 100 mM Tris/HCl pH 7.5, 22 °C, 5 min, 0.05 μM enzyme.
B1 gave a Km of 121 ± 38 µM, a Vmax of 0.458 µmol/min/mg and a kcat of 0.24 ± 0.02 s⁻¹. In the case of B2, the Km is reported as 257 ± 87 µM, the Vmax is reported as 0.473 µmol/min/mg and the kcat is reported as 0.25 ± 0.02 s⁻¹. B3 gave a Km of 377 ± 106 µM, a Vmax of 1.06 µmol/min/mg and a kcat of 0.56 ± 0.06 s⁻¹.
